Target: T1, endogenous ZO1 with N-terminal mNeonGreen (CRISPR knock-in, MDCK-II) (dog (endogenous in MDCK-II)), O97758
T1 chain: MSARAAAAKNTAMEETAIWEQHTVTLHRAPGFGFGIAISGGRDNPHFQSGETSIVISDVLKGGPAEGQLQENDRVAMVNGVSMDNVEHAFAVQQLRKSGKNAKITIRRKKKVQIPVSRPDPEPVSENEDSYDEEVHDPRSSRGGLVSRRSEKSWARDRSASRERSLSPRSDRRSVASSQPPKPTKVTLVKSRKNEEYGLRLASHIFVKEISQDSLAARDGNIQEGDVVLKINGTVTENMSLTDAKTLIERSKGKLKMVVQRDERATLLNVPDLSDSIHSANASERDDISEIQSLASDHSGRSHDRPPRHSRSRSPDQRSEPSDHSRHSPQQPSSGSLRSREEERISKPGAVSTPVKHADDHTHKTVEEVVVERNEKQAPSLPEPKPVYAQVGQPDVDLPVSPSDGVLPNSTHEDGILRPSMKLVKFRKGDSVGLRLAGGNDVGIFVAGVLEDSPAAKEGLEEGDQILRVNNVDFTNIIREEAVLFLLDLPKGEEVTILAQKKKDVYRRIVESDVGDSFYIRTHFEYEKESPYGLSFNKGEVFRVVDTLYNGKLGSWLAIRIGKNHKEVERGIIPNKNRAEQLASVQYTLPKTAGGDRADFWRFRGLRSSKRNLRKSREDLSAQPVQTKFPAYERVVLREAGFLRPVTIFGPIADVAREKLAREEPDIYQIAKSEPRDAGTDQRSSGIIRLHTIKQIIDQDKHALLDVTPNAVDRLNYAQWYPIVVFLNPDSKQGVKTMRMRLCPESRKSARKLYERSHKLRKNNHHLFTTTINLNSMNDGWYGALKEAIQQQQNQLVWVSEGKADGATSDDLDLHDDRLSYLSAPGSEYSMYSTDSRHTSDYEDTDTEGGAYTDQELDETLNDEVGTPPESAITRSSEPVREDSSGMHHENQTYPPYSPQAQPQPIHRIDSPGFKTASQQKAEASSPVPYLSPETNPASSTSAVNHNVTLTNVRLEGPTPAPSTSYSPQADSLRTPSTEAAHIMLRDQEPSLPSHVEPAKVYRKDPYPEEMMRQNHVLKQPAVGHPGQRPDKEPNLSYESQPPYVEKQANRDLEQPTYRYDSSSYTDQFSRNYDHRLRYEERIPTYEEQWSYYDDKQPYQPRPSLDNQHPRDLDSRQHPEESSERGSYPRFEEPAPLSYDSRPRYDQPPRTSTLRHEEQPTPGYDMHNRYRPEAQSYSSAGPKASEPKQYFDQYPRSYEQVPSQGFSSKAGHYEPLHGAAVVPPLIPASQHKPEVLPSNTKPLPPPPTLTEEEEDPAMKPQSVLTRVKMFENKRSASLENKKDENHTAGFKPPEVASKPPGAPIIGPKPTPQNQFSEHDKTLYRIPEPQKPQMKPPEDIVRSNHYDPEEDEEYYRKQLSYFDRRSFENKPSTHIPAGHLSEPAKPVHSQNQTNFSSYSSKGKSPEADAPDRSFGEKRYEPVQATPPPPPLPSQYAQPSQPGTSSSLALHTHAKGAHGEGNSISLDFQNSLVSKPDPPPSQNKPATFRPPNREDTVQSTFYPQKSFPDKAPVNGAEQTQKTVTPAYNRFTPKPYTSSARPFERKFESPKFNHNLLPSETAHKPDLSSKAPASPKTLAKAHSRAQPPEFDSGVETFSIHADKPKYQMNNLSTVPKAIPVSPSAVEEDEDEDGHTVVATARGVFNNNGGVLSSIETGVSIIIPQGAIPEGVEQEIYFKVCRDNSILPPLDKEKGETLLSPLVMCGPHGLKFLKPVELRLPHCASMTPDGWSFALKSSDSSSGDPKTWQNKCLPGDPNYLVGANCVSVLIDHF
Test: FCS molecular brightness
Details: remark: other sources report otherwise

stoichiometry N: 5
B1: endogenous ZO1 with N-terminal mNeonGreen (CRISPR knock-in, MDCK-II), O97758 1-1769 (natural protein)
chain: MSARAAAAKNTAMEETAIWEQHTVTLHRAPGFGFGIAISGGRDNPHFQSGETSIVISDVLKGGPAEGQLQENDRVAMVNGVSMDNVEHAFAVQQLRKSGKNAKITIRRKKKVQIPVSRPDPEPVSENEDSYDEEVHDPRSSRGGLVSRRSEKSWARDRSASRERSLSPRSDRRSVASSQPPKPTKVTLVKSRKNEEYGLRLASHIFVKEISQDSLAARDGNIQEGDVVLKINGTVTENMSLTDAKTLIERSKGKLKMVVQRDERATLLNVPDLSDSIHSANASERDDISEIQSLASDHSGRSHDRPPRHSRSRSPDQRSEPSDHSRHSPQQPSSGSLRSREEERISKPGAVSTPVKHADDHTHKTVEEVVVERNEKQAPSLPEPKPVYAQVGQPDVDLPVSPSDGVLPNSTHEDGILRPSMKLVKFRKGDSVGLRLAGGNDVGIFVAGVLEDSPAAKEGLEEGDQILRVNNVDFTNIIREEAVLFLLDLPKGEEVTILAQKKKDVYRRIVESDVGDSFYIRTHFEYEKESPYGLSFNKGEVFRVVDTLYNGKLGSWLAIRIGKNHKEVERGIIPNKNRAEQLASVQYTLPKTAGGDRADFWRFRGLRSSKRNLRKSREDLSAQPVQTKFPAYERVVLREAGFLRPVTIFGPIADVAREKLAREEPDIYQIAKSEPRDAGTDQRSSGIIRLHTIKQIIDQDKHALLDVTPNAVDRLNYAQWYPIVVFLNPDSKQGVKTMRMRLCPESRKSARKLYERSHKLRKNNHHLFTTTINLNSMNDGWYGALKEAIQQQQNQLVWVSEGKADGATSDDLDLHDDRLSYLSAPGSEYSMYSTDSRHTSDYEDTDTEGGAYTDQELDETLNDEVGTPPESAITRSSEPVREDSSGMHHENQTYPPYSPQAQPQPIHRIDSPGFKTASQQKAEASSPVPYLSPETNPASSTSAVNHNVTLTNVRLEGPTPAPSTSYSPQADSLRTPSTEAAHIMLRDQEPSLPSHVEPAKVYRKDPYPEEMMRQNHVLKQPAVGHPGQRPDKEPNLSYESQPPYVEKQANRDLEQPTYRYDSSSYTDQFSRNYDHRLRYEERIPTYEEQWSYYDDKQPYQPRPSLDNQHPRDLDSRQHPEESSERGSYPRFEEPAPLSYDSRPRYDQPPRTSTLRHEEQPTPGYDMHNRYRPEAQSYSSAGPKASEPKQYFDQYPRSYEQVPSQGFSSKAGHYEPLHGAAVVPPLIPASQHKPEVLPSNTKPLPPPPTLTEEEEDPAMKPQSVLTRVKMFENKRSASLENKKDENHTAGFKPPEVASKPPGAPIIGPKPTPQNQFSEHDKTLYRIPEPQKPQMKPPEDIVRSNHYDPEEDEEYYRKQLSYFDRRSFENKPSTHIPAGHLSEPAKPVHSQNQTNFSSYSSKGKSPEADAPDRSFGEKRYEPVQATPPPPPLPSQYAQPSQPGTSSSLALHTHAKGAHGEGNSISLDFQNSLVSKPDPPPSQNKPATFRPPNREDTVQSTFYPQKSFPDKAPVNGAEQTQKTVTPAYNRFTPKPYTSSARPFERKFESPKFNHNLLPSETAHKPDLSSKAPASPKTLAKAHSRAQPPEFDSGVETFSIHADKPKYQMNNLSTVPKAIPVSPSAVEEDEDEDGHTVVATARGVFNNNGGVLSSIETGVSIIIPQGAIPEGVEQEIYFKVCRDNSILPPLDKEKGETLLSPLVMCGPHGLKFLKPVELRLPHCASMTPDGWSFALKSSDSSSGDPKTWQNKCLPGDPNYLVGANCVSVLIDHF

Source: publication doi:10.1101/589580
